Where a chain is given by its changes, count along the chain named. In names and notes the source's numbering stands.

Assay [1] concerns the target recombinant murine IL-12 (mouse) (UniProt P43431). As to the kind of experiment: cell-based or functional assay.
Assay [2] shares this target. Description: Receptor Binding Assay: inhibition of 125I-murine IL-12 binding to receptors on 2D6 cells.
The target is the same in assay [3]. Description: Biomolecular Interaction Assay; C17.15 captured on goat anti-rat IgG, soluble recombinant murine IL-12.
In assay [4] the target is recombinant human IL-12 (rhIL-12) (human) (UniProt P29459). Description: cell-based or functional assay.
Assay [5] has as its target recombinant rhesus IL-12 (rhesus monkey) (UniProt P48091). As to the kind of experiment: cell-based or functional assay.
The target of the next assay is T1, Cyno IL-12 (PBMC sup) (cynomolgus monkey).
T1 chain 1: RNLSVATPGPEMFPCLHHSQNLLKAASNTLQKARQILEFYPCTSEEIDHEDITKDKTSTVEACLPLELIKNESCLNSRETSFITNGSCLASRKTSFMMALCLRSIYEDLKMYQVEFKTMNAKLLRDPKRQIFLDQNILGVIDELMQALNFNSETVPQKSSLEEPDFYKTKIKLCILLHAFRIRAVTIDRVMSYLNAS
T1 chain 2: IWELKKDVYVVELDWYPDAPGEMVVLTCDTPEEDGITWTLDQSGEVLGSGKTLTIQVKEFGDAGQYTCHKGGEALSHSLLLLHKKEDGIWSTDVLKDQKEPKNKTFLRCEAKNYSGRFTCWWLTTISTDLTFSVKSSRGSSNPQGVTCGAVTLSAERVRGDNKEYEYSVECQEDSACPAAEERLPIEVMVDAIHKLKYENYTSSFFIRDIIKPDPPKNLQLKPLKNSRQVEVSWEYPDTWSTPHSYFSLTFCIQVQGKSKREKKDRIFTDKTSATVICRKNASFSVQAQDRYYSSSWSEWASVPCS
As to the kind of experiment: cell-based or functional assay.

The target of another assay is T2, Baboon IL-12 (PBMC sup) (baboon).
T2 chain 1: T1 chain 1 with F82V, N85K, K110Q, M111I, R125M, K172R
T2 chain 2: T1 chain 2 with V230A
Description: cell-based or functional assay.

For assay [6], the target named is human IL-12 (recombinant human IL-12, p70 heterodimer of p35 and p40) (human) (UniProt P29459). As to the kind of experiment: cell-based or functional assay.
For assay [7] the target is unchanged. As to the kind of experiment: BIAcore SPR, IL-12 chip.
Assay [8] deals with T3, recombinant human IL-12 (rhIL-12) (human, UniProt P29459 23-219; P29460 23-328).
T3 sequence (looked up) 1: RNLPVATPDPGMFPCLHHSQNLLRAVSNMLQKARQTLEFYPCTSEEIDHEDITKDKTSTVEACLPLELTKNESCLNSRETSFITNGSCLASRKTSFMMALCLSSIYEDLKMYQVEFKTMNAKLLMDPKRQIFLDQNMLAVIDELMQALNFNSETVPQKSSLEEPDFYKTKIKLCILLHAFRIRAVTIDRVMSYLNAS
T3 sequence (looked up) 2: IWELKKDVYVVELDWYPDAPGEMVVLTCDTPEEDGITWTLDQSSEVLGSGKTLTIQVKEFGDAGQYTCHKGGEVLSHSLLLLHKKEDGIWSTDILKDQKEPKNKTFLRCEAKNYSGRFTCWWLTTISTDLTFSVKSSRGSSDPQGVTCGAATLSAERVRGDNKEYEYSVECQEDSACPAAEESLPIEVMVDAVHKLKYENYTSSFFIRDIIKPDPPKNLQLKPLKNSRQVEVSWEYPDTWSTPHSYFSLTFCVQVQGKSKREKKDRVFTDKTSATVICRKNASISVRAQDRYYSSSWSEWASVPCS
Description: cell-based or functional assay.

Assay [9] has as its target human IL-12 (recombinant human IL-12, p70 heterodimer of p35 and p40) (human) (UniProt P29459). Description: RB assay: 125I-hIL-12 binding to PHA blasts.
Assay [10] deals with T4, recombinant human interleukin 12 (p40/p35 heterodimer) (human, UniProt P29460 23-328; P29459 23-219).
T4 construct: Disulfide-linked heterodimer; also called human IL-12; hIL-12
T4 sequence (looked up) 1: T3 sequence (looked up) 2
T4 sequence (looked up) 2: T3 sequence (looked up) 1
As to the kind of experiment: surface plasmon resonance (BIAcore).

In assay [11] the target is T4, recombinant human interleukin 12 …. Description: IL-12 receptor binding assay (RBA): inhibition of labelled IL-12 binding to PHA blasts.
The target of the next assay is T5, recombinant rhesus IL-12 (rhesus monkey, UniProt P48095 23-328; P48091 23-219).
T5 construct: Obtained from Emory University School of Medicine
T5 sequence (looked up) 1: T1 chain 2
T5 sequence (looked up) 2: T1 chain 1
Description: neutralisation bioassays with purified rhesus IL-12.

Another assay has as its target T6, recombinant murine IL-12 (mouse, UniProt P43432 23-335; P43431 23-215).
T6 construct: R&D Systems Cat. No. 419-ML in the BIAcore test; 'purified murine IL-12' in the bioassays; also called mouse IL-12; rmIL12
T6 sequence (looked up) 1: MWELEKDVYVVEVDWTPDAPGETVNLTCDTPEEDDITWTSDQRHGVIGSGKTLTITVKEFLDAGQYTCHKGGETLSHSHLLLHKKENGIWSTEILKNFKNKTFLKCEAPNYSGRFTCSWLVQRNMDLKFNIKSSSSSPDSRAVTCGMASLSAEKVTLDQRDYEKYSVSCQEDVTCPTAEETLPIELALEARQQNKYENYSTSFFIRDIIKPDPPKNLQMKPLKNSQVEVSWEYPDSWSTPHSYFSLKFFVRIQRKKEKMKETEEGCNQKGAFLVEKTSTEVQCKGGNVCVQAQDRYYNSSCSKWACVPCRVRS
T6 sequence (looked up) 2: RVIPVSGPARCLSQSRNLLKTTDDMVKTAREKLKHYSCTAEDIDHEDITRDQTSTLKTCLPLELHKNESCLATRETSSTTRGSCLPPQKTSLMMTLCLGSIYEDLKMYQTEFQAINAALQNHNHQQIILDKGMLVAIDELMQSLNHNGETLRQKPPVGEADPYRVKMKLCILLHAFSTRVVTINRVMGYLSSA
As to the kind of experiment: neutralisation bioassay with purified murine IL-12 (2D6 cell proliferation).

Assay [12] concerns the target T7, human IL-12 (recombinant human IL-12, p70 heterodimer of p35 and p40) (human, UniProt P29459 23-219; P29460 23-328).
T7 sequence (looked up) 1: T3 sequence (looked up) 1
T7 sequence (looked up) 2: T3 sequence (looked up) 2
Description: cell-based or functional assay.

With “C17.15, rat anti-murine IL-12 monoclonal antibody”, in assay [1], the IC50 (M), Mouse IL-12 Purified was 3e-11 M and the PHA blast Assay IC50 was found to be 0.014 nM. Also, the IC50 in assay [2] was found to be 0.15 nM. Further, in assay [3], the Kd turned out to be 0.48 nM, the dissociation rate constant (koff) stood at 0.000184 s⁻¹ and the kon turned out to be 380000 M⁻¹ s⁻¹.
Regarding “C8.6.2, mouse anti-human IL-12 monoclonal antibody”, in assay [4], the IC50 (M), Human IL-12 Purified was 5e-11 M. Moreover, the IC50 (M), Rhesus IL-12 Purified in [5] was 1e-10 M. In the assay with Cyno IL-12 (PBMC sup), this molecule showed an IC50 (M), Cyno IL-12 PBMC sup of 1.2e-10 M. The molecule further yielded an IC50 (M), Baboon IL-12 PBMC sup with Baboon IL-12 (PBMC sup) of 2e-10 M.

B1: 149-7 (scFv, V domains shown)
VH: QVQLVQSGGGVVQPGRSLRLSCAASGFTFSSYGMHWVRQAPGKGLEWVAFIRYDGSNKYYADSVKGRFTISRDNSKNTLYLQMKSLRAEDTAVYYCTTHGSHDNWGQGTMVTVSS
VL: SYVLTQPPSVSGTPGQRVTISCSGGRSNIGSNTVKWYQQLPGTAPKLLIYGNDQRPSGVPDRFSGSKSGTSASLAITGVQAEDEADYYCQSYDRDFTGSRVFGTGTKVTVL
On to B1, for which, in [6], the PHA assay IC50 is 3 nM. Moreover, the dissociation rate constant (koff) in [7] was 0.00113 s⁻¹. Besides, in assay [8], the “PHA assay IC50 (M) p70:p40 1:0” value came out at 3.5e-09 M, the “PHA assay IC50 (M) p70:p40 1:20” value came to 2.5e-09 M and the “PHA assay IC50 (M) p70:p40 1:50” value was 4e-09 M. Further, in assay [9], the 50% inhibitory concentration (IC50) is 0.9 nM.

B2: Y61 scFv (scFv, V domains shown)
VH: B1 VH with T97K
VL: SYVLTQPPSVSGTPGQRVTISCSGGRSWIGSNTVKWYQQLPGTAPKLLIYGNDQRPSGVPDRFSGSKSGTSASLAITGVQAEDEADYYCQSYDRGTHPALLFGTGTKVTVLG
notes: Single-chain Fv; also called clone Y61
In the case of B2, the koff in assay [10] is roughly 0.0002 s⁻¹.

B3: Joe 9 wild type (scFv, V domains shown)
VH: B1 VH with H99S, H102Y, N104Y
VL: B1 VL with R94S, D95S, F96L, T97R
Turning to B3, the half-maximal inhibitory concentration (IC50) in assay [11] was determined as 1000 nM.

B4: J695 human anti-human IL-12 antibody (antibody, V domains shown)
VH: B1 VH with Q6E, K84N, T97K
VL: B2 VL with S1Q, Y2S, T13A, G25S, W28N, G51Y, V79L, G95Y
notes: tested as human IgG1 with lambda light chain (detected with anti-human lambda); Made in CHO or COS cells; also called Y61-L94Y-L50Y IgG
Turning to B4, the results for the binding result with recombinant rhesus IL-12 and with recombinant murine IL-12 were “binds” and “no binding”, respectively.

B5: 70-1 IgG1 (antibody, V domains shown)
VH: HGSHDN
VL: QSYDSSLRGSRV
As for B5, the “PHA assay IC50” value in assay [12] stood at 200 nM.

Source of the values: patent publication US20110123544A1 (published 2011).
